One assay relates to phospho-Sic1. Kind of assay: P-Sic1 pull down: in vitro capture of phospho-Sic1 on immobilized wild type or mutant Cdc4-GST-Skp1, anti-Sic1 immunoblot. The note with it: Sic1 phosphorylated with Cln2-Cdc28, captured onto GST-Skp1/Cdc4 resin, anti-Sic1 detection. Type of assay: binding, yeast. How it is done: (§1) Mutational analysis of the CPD binding surface. Mutants were tested in vitro by ability to bind phosphorylated Sic1 and then captured onto GST-Skp1/Cdc4 resin and detected with anti-sic1 antibody. Mutants were tested in vivo by ability to degrade GAL1-SIC1 or various phosphorylation mutants. Sites are as follows: 3=Thr 33, Thr 45, Ser 76; 4=Thr 5, Thr 33, Thr 45, Ser 76; 5=Thr 2, Thr 5, Thr 33, Thr 45, Ser 76; 6=Thr 2, Thr 5, Thr 33, Thr 45, Ser 69, Ser 76; 7=Thr 2, Thr 5, Thr 33, Thr 45, Ser 69, Ser 76, Ser 80. GAL1-SIC1 plasmids were transformed into a cdc4Δ strain containing a copy of CDC4 on a TRP1 ARS CEN plasmid. Strains were incubated for 2 days at 30° C.
Bacterially expressed His6-Sic1 was phosphorylated with Cln2-Cdc28 kinase purified from baculovirus infected Sf9 cells as described before (Nature paper). 1 ug of WT or mutant Cdc4-GST-Skp1, immoblized on GSH-Sepharose resin, was incubated with 0.5 ug phospho-Sic1 at 4 C for 1 h and washed 4 times. Captured complexes were resolved on SDS-PAGE and Sic1 visualized by anti-Sic1 Western blotting and ECL. For IEF-2D analysis, several Sic1 phosphorylation reactions were carried out for different time periods to obtain a spectrum of Sic1 that were phosphorylated at different numbers of its nine CDK sites. This pool of phospho-Sic1 (2.5 ug) was incubated with 5 μg of WT or mutant Cdc4-GST-Skp1 as described above. Different phosphorylation states of Sic1 were separated by denaturing isoelectric focusing (IEF)-2D gel electrophoresis and visualized by anti-Sic1 Western blotting and ECL. IEF was performed using pH 3-10NL Immobiline gel strips and IPGphore IEF system (Amersham pharmacia).
(§2) Cdc4 functional assays. CDC4 mutant alleles were assessed for complementation of a cdc4A strain in a plasmid shuffle assay (Nash et al., 2001). Sensitivity to SIC1 dosage was determined by transformation with pMT837 (GAL1-SIC1) or pMT767 (GAL1-SIC1^T33V) and plating on glucose medium or galactose medium. For in vitro capture of phospho-Sic1 by Cdc4, 0.5 μg of bacterially-expressed ^HIS6Sic1 was phosphorylated with immobilized Cln2-Cdc28 kinase from baculovirus-infected Sf9 cells and then incubated with 1 μg of immobilized wild type or mutant Cdc4^263-744-GST-Skp1, at 4° C. for 1 hr, washed 4 times and visualized by anti-Sic1 immunoblot. For isoelectric focusing (IEF)-2D gel analyses, an evenly distributed pool of phospho-Sic1 isoforms was generated by combining different time points in a Sic1 phosphorylation reaction. 2.5 μg of the phospho-Sic1 pool was bound to 5 μg of immobilized wild type or mutant Cdc4^1-744-GST-Skp1. Captured isoforms were separated by denaturing IEF-2D gel electrophoresis using pH3-10NL Immobiline gel strips (Amersham) and visualized by anti-Sic1 immunoblot. Alternatively, the pool of phospho-Sic1 isoforms was incubated in solution with a ubiquitination reaction mix containing ATP, ubiquitin, yeast E1, Cdc34 and either wild type or mutant SCF^Cdc4 complex, composed of a 1:1 ratio of bacterial Cdc4-GST-Skp1 and insect cell-produced Cdc53-Rbx1, at 30° C. for 1 h as previously described (Nash et al., 2001).
(Immunoblotting shows a protein as a band on a membrane.)

The next assay concerns cdc4Δ strain. The assay can be described thus: plasmid shuffle assay: complementation of a cdc4Δ strain by CDC4 alleles. The note with it: viability of cdc4Δ strain on 5-FOA, 2 days at 30° C. In kind it is cell-based, yeast. The method, then: (§3) All mutants on a TRP1 ARS CEN plasmid were transformed into a cdc4Δ strain (MT 1259) containing a wildtype copy of CDC4 on a URA3 ARS CEN plasmid. Cells were plated on either Trp^−Ura^− or 5-FOA medium for 2 days at 30° C. Viable cells on 5-FOA were grown in Trp medium and transformed with either wild type GAL1-SIC1, GAL1-SIC T45A, or GAL1-SIC T33V on a LEU2 ARS CEN pasmid. Cells were then plated on Leu- Trp-plates containing either glucose or galactose and incubated for 2 days at 30° C.
as §2

A further assay deals with T1, Skp1 (Saccharomyces cerevisiae, UniProt P52286).
T1 construct: GST (N); made in house; host or cells: bacteria
T1 sequence (P52286 2-194 limits assumed): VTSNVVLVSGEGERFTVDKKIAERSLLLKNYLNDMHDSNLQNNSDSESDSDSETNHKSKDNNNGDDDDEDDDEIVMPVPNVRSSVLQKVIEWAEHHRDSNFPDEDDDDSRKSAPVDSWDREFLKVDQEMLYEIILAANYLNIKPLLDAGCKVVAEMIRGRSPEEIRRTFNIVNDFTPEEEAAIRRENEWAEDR
Kind of assay: Skp1 binding in vitro (pull down). Also on record: species or system yeast. From the text: In order to probe the functional importance of amino acid residues on the highly conserved peptide binding surface, a panel of Cdc4 mutants (both single and double mutant) were generated and tested each for its ability to bind phospho Sic1 and Skp1 in vitro using a pull down assay and for its ability to substitute for wt-cdc4 in vivo using a cell viability assay. Of 12 single site mutants tested, only Arg 467. Arg485Ala Arg534Ala, and Trp 426 abolished both cell viability in vivo and phosphoSic1 binding in vitro. Together, these residues compose most of the interaction surface with the pThr, Pro CPD core. […] Presumably in the context of the full SCF complex in vivo this mutant is sufficiently well behaved to bind phospho Sic1.

The test system of assay [1] is cdc4Δ strain overexpressing SIC1. The assay can be described thus: sensitivity to SIC1 dosage: GAL1-SIC1 overexpression in strains bearing CDC4 alleles. In kind it is cell-based, yeast. The note with it: for gal Sic1T33V: GAL1-SIC1 T33V (partially stabilized Sic1); for gal Sic1T33V / gal Sic1T45A / gal Sic1 wt: galactose, 2 days at 30° C.; for gal Sic1T45A: GAL1-SIC1 T45A; for gal Sic1 wt: GAL1-SIC1 wild type; for viability / sensitivity to increased SIC1 dosage: Sic1 wt or stabilized Sic1(T33V) or Sic1(T45A) over-expressed under a galactose promoter. How it is done: as §1, §3
Since the cell viability assay nay be masking subtle functional roles for the conserved Cdc4 residues, function was assayed in vivo under more stringent conditions in which Sic1 wt or the stabilized mutants, Sic1 (T33V) or Sic1(T45A) are over-expressed under a galactose promoter. This should amplify defects in cdc4 function. Under these conditions, Trp 717, Tyr 548 and the double mutant K404D/R443D are lethal showing that these residues are in fact important for functions
as §2

Where a chain is given by its changes, count along the chain named. In names and notes the source's numbering stands. Entries after “also recorded” stand apart in the source; their conditions may differ.

B1: R467A: mutant cdc4 polypeptide (protein)
chain: MGSFPLAEFPLRDIPVPYSYRVSGGIASSGSVTALVTAAGTHRNSSTAKTVETEDGEEDIDEYQRKRAAGSGESTPERSDFKRVKHDNHKTLHPVNLQNTGAASVDNDGLHNLTDISNDAEKLLMSVDDGSAAPSTLSVNMGVASHNVAAPTTVNAATITGSDVSNNVNSATINNPMEEGALPLSPTASSPGTTTPLAKTTKTINNNNNIADLIESKDSIISPEYLSDEIFSAINNNLPHAYFKNLLFRLVANMDRSELSDLGTLIKDNLKRDLITSLPFEISLKIFNYLQFEDIINSLGVSQNWNKIIRKSTSLWKKLLISENFVSPKGFNSLNLKLSQKYPKLSQQDRLRLSFLENIFILKNWYNPKFVPQRTTLRGHMTSVITCLQFEDNYVITGADDKMIRVYDSINKKFLLQLSGHDGGVWALKYAHGGILVSGSTDRTVRVWDIKKGCCTHVFKGHNSTVACLDIVEYKNIKYIVTGSRDNTLHVWKLPKESSVPDHGEEHDYPLVFHTPEENPYFVGVLRGHMASVRTVSGHGNIVVSGSYDNTLIVWDVAQMKCLYILSGHTDRIYSTIYDHERKRCISASMDTTIRIWDLENIWNNGECSYATNSASPCAKILGAMYTLQGHTALVGLLRLSDKFLVSAAADGSIRGWDANDYSRKFSYHHTNLSAITTFYVSDNILVSGSENQFNIYNLRSGKLVHANILKDADQIWSVNFKGKTLVAAVEKDGQSFLEILDFSKASKINYVSNPVNSSSSSLESISTSLGLTRTTIIP
With B1, the values for the P-Sic1 pull down entry with phospho-Sic1, with phospho-Sic1 (listed as Arg 467) and in the assay on phospho-Sic1 (listed as Arg467Ala) were “no bind”, “abolished” and “unable to bind”, respectively. The shuffle result is recorded as “dead” in the assay on cdc4Δ strain, “abolished” in the assay with cdc4Δ strain (listed as Arg 467) and “unable” in the assay with cdc4Δ strain (listed as Arg467Ala). The Skp1 binding result in the assay with Skp1 is “fully competent”.

B2: R443D: mutant cdc4 polypeptide (protein)
chain: B1 chain with R443D, A467R
In the case of B2, in the assay with phospho-Sic1, the P-Sic1 pull down result is “bind”. The P-Sic1 pull down result with phospho-Sic1 (listed as Arg443Asp) is on record as “indistinguishable from wild type”. Further, the shuffle result with cdc4Δ strain was “alive”. Also, the shuffle entry in the assay with cdc4Δ strain (listed as Arg443Asp) is “indistinguishable from wild type”. Besides, in assay [1], the “gal Sic1T33V” value is “alive”, the “gal Sic1T45A” value was “dead”, the “gal Sic1 wt” value is listed as “alive” and the “viability / sensitivity to increased SIC1 dosage” value is given as “indistinguishable from wild type”.

B3: V384N: mutant cdc4 polypeptide (protein)
chain: B1 chain with V384N, A467R
As to B3, the P-Sic1 pull down result with phospho-Sic1 is on record as “bind”; with phospho-Sic1 (listed as Val384), “fully competent”; with phospho-Sic1 (listed as Val384Asn) it was “indistinguishable from wild type”. Also, the shuffle entry in the assay on cdc4Δ strain was “alive”; in the assay on cdc4Δ strain (listed as Val384), “viable”; with cdc4Δ strain (listed as Val384Asn) it was “indistinguishable from wild type”. The “gal Sic1T33V” value in assay [1] is “alive”. Further, the “gal Sic1T45A” value in assay [1] is listed as “dead”. The “gal Sic1 wt” value in assay [1] is “alive”. Besides, the “viability / sensitivity to increased SIC1 dosage” value in assay [1] is “indistinguishable from wild type”.

B4: R485A: mutant cdc4 polypeptide (protein)
chain: B1 chain with A467R, R485A
Regarding B4, the P-Sic1 pull down entry is listed as “no bind” in the assay on phospho-Sic1 and “abolished; also recorded: unable to bind” in the assay with phospho-Sic1 (listed as Arg485Ala). Besides, the shuffle entry was “dead” in the assay on cdc4Δ strain and “abolished; also recorded: unable” in the assay on cdc4Δ strain (listed as Arg485Ala). In the assay with Skp1, the Skp1 binding result was “fully competent”.

B5: W717N: mutant cdc4 polypeptide (protein)
chain: B1 chain with A467R, W717N
In the case of B5, the P-Sic1 pull down result in the assay on phospho-Sic1 is recorded as “bind”; in the assay with phospho-Sic1 (listed as Trp717) it was “fully competent”; with phospho-Sic1 (listed as Trp717Asn), “did not overtly affect”. Moreover, the shuffle result in the assay with cdc4Δ strain is listed as “alive”; with cdc4Δ strain (listed as Trp717) it was “viable”. The “gal Sic1T33V” value in assay [1] is listed as “dead”; in assay [1] (listed as Trp717Asn), “conferred sensitivity”. In addition, the “gal Sic1T45A” value in assay [1] is “dead”. Moreover, in assay [1], the “gal Sic1 wt” value is on record as “alive”. Further, the “viability / sensitivity to increased SIC1 dosage” value in assay [1] was “lethal”.
